The values that follow come from patent US20080113421A1, “Stabilizing proteins against denaturation and inactivation by charged detergents using chemical modifications, including modifications that increase net charge” (President and Fellows of Harvard College, priority 2006, published 2008).

What all share (assay type): physicochemical
A short description of data set [1]: Unfolding (denaturation) of protein in SDS in Tris-Gly buffer, monitored by DNSA fluorescence. As to the method: Monitoring unfolding of BCA and BCA-Ac18 was performed as follows. The proteins (200 nM) were incubated in different concentrations of SDS in Tris-Gly buffer. A 100 microliter aliquot of protein-SDS solution was mixed with 100 microliters of DNSA solution (30 micromolar) with the same concentration of SDS, and measured the intensity of fluorescence (Perkin-Elmer LS50B spectrometer, λex=280 nm, λem=460 nm) as a function of time. The denaturation of BCA was continuously monitored in concentrations of SDS above 4 mM. The rate constants were determined for denaturation by fitting the intensity vs. time data to FU=FUmaxe^−kt+FUmin. Unfolding experiments at 37° C. were performed similarly, with samples stored in a dry bath incubator (Fisher Scientific).
The kinetics of unfolding were determined as follows. The rates of denaturation of BCA and BCA-Ac18 were measured by incubating the protein (200 nM) in solutions of different concentrations of SDS. Immediately prior to the measurement, an aliquot of solution containing protein and SDS was mixed with a solution containing DNSA and the same concentration of SDS; this protocol minimized the possibility that DNSA might stabilize the native conformation of the protein, and influence the rate of its denaturation. When BCA was denatured in concentrations of SDS of 4 mM and higher, DNSA was added to the original, denaturing solution because the rate of denaturation was too fast to follow with manual mixing of aliquots of protein and DNSA. It was observed that DNSA, when present with the protein in the denaturing solution, reduced the rates of denaturation by factors of about 2-10.
FIG. 1 plots the fluorescence of DNSA, normalized to the signal at t=0, as a function of time of incubation of samples of BCA and BCA-Ac18 in various concentrations of SDS. The decrease in the intensity of fluorescence of DNSA, and thus in the amount of folded protein, followed first-order kinetics. Denaturation of proteins with surfactants probably proceeds through intermediates, but when using a marker that is specific to the folded active site of carbonic anhydrase, transitions beyond the initial unfolding of the three-dimensional structure of the protein were not detected.
The tables list the half-lives (t1/2) for denaturation of BCA and BCA-Ac18 at several concentrations of SDS. The denaturation of BCA at 4 mM occurred very rapidly, and data are not shown to avoid overlap with data at 3.5 mM. The error bars represent the difference between the average and the largest and smallest values measured from at least three replicate measurements.

Data set [2] can be described thus: Refolding of SDS-denatured protein by dilution or removal of SDS, monitored by DNSA fluorescence. As to the method: Monitoring refolding of BCA and BCA-Ac18 was performed as follows. The proteins (10 micomolar) were denatured in 10 mM SDS for 24 h. […] Refolding was initiated by dilution of an aliquot of the denatured sample to a final concentration of protein of 200 nM, with varying concentrations of SDS in the buffer. Immediately prior to the measurement, an aliquot of renaturing protein was mixed with an equal aliquot of DNSA. The rate constants for renaturation were determined by fitting the data to FU=FUmax(1-e^−kt)+FUmin. The refolding experiments at 37° C. were performed similarly.
The kinetics of refolding were determined as follows. The rates of refolding of BCA and BCA-Ac18 from the fully denatured states (in 10 mM SDS) were measured by dilution of the solutions into buffers containing concentrations of SDS from 0.1 to 2 mM, using the fluorescence of DNSA as a marker for the appearance of the folded state. […] As in denaturation studies, an aliquot of solution of the protein and SDS was mixed with an equal aliquot of solution of DNSA with the same amount of SDS immediately prior to the measurement to eliminate the possibility of DNSA influencing refolding kinetics. The buffer also contained 100 micromolar ZnSO4 to ensure that the folded protein could incorporate a Zn(II) cofactor.
The raw data emphasize the decrease in the yield of folded protein with increasing concentration of SDS. […] The half-lives (t1/2) for renaturation were determined, where possible, by fitting the data to FU=FUmax(1-exp(−t/t1/2))+FUmin; the fits are shown (solid lines). The tables provide data for refolding in 0.1 and 0.4 mM SDS as well as for concentrations on the graphs for comparison. […] The error bars represent the difference between the average and the largest and smallest values measured from at least three replicate measurements.

A short description of data set [3]: Refolding after 1 week incubation at intermediate SDS concentrations (aggregation test). As to the method: Aggregation was tested by renaturing the proteins from a denatured state at 10 mM SDS to 0.1 mM SDS, but through an incubation step at intermediate concentrations of SDS, instead of renaturing by rapid dilution from 10 mM SDS to 0.1 mM SDS directly (i.e., 10 mM SDS→2.5 mM SDS→0.1 mM SDS instead of 10 mM SDS→0.1 mM SDS). For incubation, concentrations of SDS were chosen in which aggregation was believed to occur on a similar or shorter time scale as refolding. The protein-SDS complex was diluted from 10 mM SDS to 2.5-0.7 mM SDS, the proteins were incubated for 1 week at those concentrations, and the samples further diluted to 0.1 mM SDS to initiate fast refolding.
The fluorescence signal from DNSA was normalized to that of refolded protein by rapid dilution from 10 to 0.1 mM SDS.

Data set [4] can be described thus: Net charge of protein (capillary electrophoresis, charge ladder). The method, then:
BCA-Ac18 was synthesized by reacting the lysine residues of BCA with acetic anhydride in 100 mM HEPES buffer, pH 8.2. The N-terminus of BCA was acetylated posttranslationally. The final product contained ˜90% of BCA-Ac18 and 10% of BCA-Ac17, as determined by peak areas in an electropherogram from separation by capillary electrophoresis. The net charge of BCA in Tris-Gly buffer was about −3, and the net charge of BCA-Ac18 was about −19. It is believed that the difference in charge between BCA and BCA-Ac18 was less than 18 full units of charge due to charge regulation-adjustment of protonation states of other ionizable groups on the protein to counteract the increasing electrostatic potential on its surface.
For any charge ladder of BCA, as the number of modifications (n) increases, the total charge on the protein becomes more negative, and the surface of the protein becomes more hydrophobic due to conversion of NH3^+ groups to NHCOR groups. Native BCA has a charge of ˜−2.9 at pH 8. The charge on the early rungs of the ladder increased linearly with the number of acylations; each rung adds an additional charge of ˜−0.9. Therefore, for example, BCA-Ac8 has a charge of ˜−10. The later rungs of the ladder may differ by <0.9 units of charge. Using the Linderstrom-Lang model of cooperativity in proton binding, the charge on BCA-Ac18 was calculated to be −19. The mobility of a given rung of BCA-Acn may have nearly the same mobility as the corresponding rung of BCA-Hexn. Thus, the charges of the BCA-Hexn may be indistinguishable from those of BCA-Acn for a given rung number. (Small deviations in mobility between later rungs of the two ladders may be due either to a change in charge or a change in drag between the two ladders. It can be assumed that any differences in the mobilities are due to additional drag from the hexanoyl groups relative to the acetyl groups.

The nature of data set [5]: Denaturation of BCA charge ladders in 3 mM SDS (dialysis cassette) followed by capillary electrophoresis, with transition-state model fit. The following applies: for b coefficient of fit ΔG‡=a+bn+cn^2: 3 mM SDS; for Chydro (hydrophobic contribution to ΔΔG‡): per acylation. The method, then:
Denaturation experiments were performed as follows. A charge ladder of BCA (BCA-Acn or BCA-Hexn, 1 mL of 100 micromolar total protein in Tris-Gly buffer) was placed in a dialysis cassette (MW cutoff of 10 kDa). The dialysis cassette was placed in a 1 L bath of 3 mM SDS in Tris-Gly buffer at room temperature. The buffer was changed every 24 h. At regular intervals of time (approximately every half-hour), 100 microliters of the protein solution was removed from the dialysis cassette; ˜7 microliters of that aliquot was diluted 10-fold and the absorbance of the diluted sample at 280 nm (ε280,BcA=57,000 M^−1 cm^−1, the absorption cross section can be assumed to be is unchanged by acylation) was measured to determine the total protein concentration. The aliquot was diluted because the absorbance of the 100 micromolar solution was too high to be read accurately by the ultraviolet spectrometer. This diluted aliquot was discarded. The remainder of the solution was then run on CE. The protein solution, except for the portion diluted for ultraviolet measurement, was returned to the dialysis cassette; the aliquot was outside of the dialysis cassette for ˜5 min.
Capillary electrophoresis experiments were carried out in a Beckman (Fullerton, Calif.) PACE-MDQ system, using a capillary of inner diameter of 50 micrometers of total length of 110.2 cm, 100 cm to the detector. Tris-Gly in D2O was used as the running buffer, and the applied voltage was 30 kV. D2O was used in place of H2O for the electrophoresis buffer because the viscosity of D2O is higher than that of H2O and the higher viscosity minimizes diffusion. Samples were injected using pressure (20 psi) for 30 s. Each sample contained 0.65 mM dimethylformamide as an electrically neutral marker for electroosmotic flow.
The CMC of SDS in the Tris-Gly buffer used in this example was 4.3 mM. 3 mM SDS was chosen for these experiments because this concentration of SDS denatured BCA in an interval of time that was convenient for experimental work using CE. In addition, this concentration of SDS was close to the concentration often used in SDS-PAGE (0.1% or 3.5 mM). 1 mL of a solution of ˜100 micromolar of a charge ladder of BCA, dissolved in Tris-Gly buffer, was placed into a dialysis cassette (molecular weight cutoff of 10 kDa) and the cassette placed in 1 L of Tris-Gly buffer containing 3 mM SDS. The bath was kept at room temperature (˜22° C.) for the duration of the experiment.
At regular intervals of time (approximately every half hour), 100-microliter aliquots of the solutions containing the charge ladder of BCA were removed from the cassette in a bath of 3 mM SDS in Tris-Gly buffer, the total protein concentration in the aliquot was measured using absorbance at 280 nm, and a portion (˜10 nL) of the aliquot injected onto the CE. The unused portions of the aliquots were then returned to the cassette.
Residence time in the detection volume was determined as follows. […] If two proteins with the same absorptivity were present in a sample in equal concentrations, the protein of lower velocity would have a larger measured peak area than the protein of higher velocity. To correct for this experimental bias, the area of each peak was multiplied-by the velocity of the protein (Acorr=Ameasured×LD/tD), where LD is the length of the capillary from the end (where injection occurs) to the detector (100 cm in all of these experiments) and tD is the time it takes for the rung to reach the detector.
Initial differences in concentrations of each rung were as follows. The areas of each of the rungs in the charge ladder were not all equal before denaturation. To measure the fraction of each rung that has denatured at each time, the velocity-corrected area of each rung in the sample was divided by the velocity-corrected area of that rung in the charge ladder run in the absence of SDS.
A comparison of the rates of denaturation follows. […]

Data set [6] can be described thus: Critical micelle concentration by isothermal titration calorimetry. The following applies: 25 mM Tris-192 mM Gly, pH 8.4 buffer. As to the method:
Critical micelle concentration of SDS in Tris-Gly buffer was determined as follows. The critical micelle concentration (CMC) of SDS in 25 mM Tris-192 mM Gly, pH 8.4 buffer was 4.3 mM, as measured by isothermal titration calorimetry. In this example, the kinetics of denaturation and renaturation of proteins in concentrations of SDS below the CMC were studied. The difference in kinetics of denaturation of the two proteins may also occur in concentrations of SDS above the CMC.
(In general: In ITC the heat of successive injections is recorded.)

With “BCA-Ac18: charge-modified derivative of BCA having all 18 lysine groups acetylated”, the t1/2 for denaturation in data set [1] (4 mM SDS, Tris-Gly buffer) is 30 h; in data set [1] (10 mM SDS, Tris-Gly buffer) it was 2.67 h. For the same compound, in data set [1] (4 mM and 10 mM SDS), the “difference in denaturation time, BCA-Ac18 vs BCA (factor)” value is on record as ~10^4. Also, the “difference in kinetics of denaturation of BCA and BCA-Ac18 (factor)” value in data set [1] (SDS at and above 2.5 mM) is recorded as 10^1-10^4. The “denaturation in low concentrations of SDS” value in data set [1] (SDS below 2 mM, long (~1 month) periods of time) is “no denaturation was observed”. In addition, the “concentration of SDS at which the protein denatures” value in data set [1] (Tris-Gly buffer, CMC 4.3 mM) was at least 2500 µM. Moreover, the “change in rates of denaturation with SDS, BCA vs peracetylated BCA” value in data set [1] (change in charge of the protein by a factor of 5) is recorded as −3 orders of magnitude. In addition, the “difference in activation energy for denaturation, BCA-Ac18 vs BCA” value in data set [1] (from the factor of about 10^4 in rates) was determined as 5 kcal/mol. The “concentration of SDS at which no refolded protein was observed” value in data set [2] (dilution from 10 mM SDS) was at least 1600 µM. In addition, the “rate of refolding relative to BCA” value in data set [2] (solutions with the same concentration of SDS) is reported as “faster than refolding of BCA”. Besides, the “range of SDS concentrations in which protein neither refolds nor unfolds at an observable rate (window)” value in data set [2] (time scales of a month) lay in the range of 1.6 to 2 mM. In data set [2] (upon complete removal of the SDS), the “refolding rate (given as time) after denaturation with SDS” value was found to be 21 ± 2 min. Moreover, the “yield of refolded protein after incubation, relative to BCA” value in data set [3] (1 week incubation at intermediate SDS, then 0.1 mM SDS) is recorded as “higher than the yields of BCA”. Also, the t1/2 for refolding in data set [3] (denatured in 10 mM SDS, incubated 1 week at intermediate SDS, diluted into 0.1 mM SDS) came to 0.292 ± 0.0233 h. For the same compound, the net charge result in data set [4] (Tris-Gly buffer) is recorded as “about −19”.

Consider “BCA-Hexn: charge ladder of BCA prepared with hexanoic anhydride”, for which, in data set [5], the “b coefficient of fit ΔG‡=a+bn+cn^2” value was 0.33±0.01 kcal/mol of protein and the “Chydro (hydrophobic contribution to ΔΔG‡)” value was found to be 0.26 kcal/mol.

Turning to “BCA-Ac8: rung of the acetyl charge ladder of BCA with 8 acetylated lysines (regioisomers)”, the “charge of rung from number of acylations” value in data set [4] (each rung adds ~−0.9) was about −10.

As to “BCA-Acn: charge ladder of BCA prepared with acetic anhydride”, in data set [5], the “b coefficient of fit ΔG‡=a+bn+cn^2” value is given as 0.50±0.01 kcal/mol of protein and the “Chydro (hydrophobic contribution to ΔΔG‡)” value is given as 0.085 kcal/mol. Moreover, the “effects of charge on denaturation with SDS relative to effects of hydrophobicity” value in data set [5] (model of charge ladder data) is listed as about 5 fold.

Turning to `CCCCCCCCCCCCOS(=O)(=O)[O-].[Na+]` [SDS, sodium dodecyl sulfate], the “critical micelle concentration (CMC)” value in data set [6] worked out at 4.3 mM.
